Article PMC6718144, “Structure of the archaeal chemotaxis protein CheY in a domain-swapped dimeric conformation” (Acta Crystallographica. Section F, Structural Biology …, 2019)

Molecular target: the molecule itself
Experiment: cross-linking; glutaraldehyde, incubation 1, 2, 5 and 10 min before quenching; Coomassie-stained SDS-PAGE

B1: CheF from Pyrococcus horikoshii (PhCheF), non-His-tagged (natural protein, P. horikoshii)
chain: MPIFEARVKVGISSSWVTSRKVSWRDAIAQIESDRIVVKYLKMGEVVGEDSFPFSALIDLGVRIPDELKLNPEKDHFGIKFYIPGRGELLVIFTIEENLLIYDEKKFSEFVHKVFEVLINGKTVMLQLARIIGGAVNMESKWEEGWLRVIKVKSARTQKTERSIVVIIKDKRPVSIFSDLEDIEIEEVDMNGKRVRAWKIRHFHIDQSVTSYLYIPDKQTQLYVLRYLLKYNPAIMEFIMKVSDDFPTLKSEFQEIMEKEIKELEALDEMEKQILVALYSGINPLELHQFLGVSEKEIEEIYDRMIDKGLLKIVMIRKIVDLTNEGRKIVNKLLKYGLVSM
notes: CheF, Pyrococcus horikoshii, ORF PH0494, UniProt O58230; also called PH0494; source: E. coli BL21 Gold (DE3); purified (heating to 80°C, SEC); as lysate supernatant in the pull-down
stoichiometry N: 2
